US20250076311A1 (Chugai, published 2025)
Numbering of substitutions follows the chain as printed. Names and notes keep the numbering of the source. Blank lines part the entries; values can stand above or below the binder they belong to.

How the values were obtained:
[1] = target: T1, human FcγRIIb constitutively expressed on MDCK cells (human, UniProt P31994 43-310); assay: cell-based or functional assay
T1 sequence (looked up): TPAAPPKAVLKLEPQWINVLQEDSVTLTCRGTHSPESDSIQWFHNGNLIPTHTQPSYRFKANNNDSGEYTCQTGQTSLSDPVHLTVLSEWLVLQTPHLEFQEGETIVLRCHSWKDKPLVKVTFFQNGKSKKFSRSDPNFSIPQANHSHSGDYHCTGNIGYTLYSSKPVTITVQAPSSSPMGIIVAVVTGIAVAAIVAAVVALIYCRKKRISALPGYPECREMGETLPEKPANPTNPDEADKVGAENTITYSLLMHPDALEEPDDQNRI

[2] = target: T2, cynomolgus monkey FcγRIIIaS extracellular domain with C-terminal His-tag (cynomolgus monkey, UniProt Q8SPW2 21-206 at identity 1.00)); assay: SPR, antibody captured, FcγR analyte
T2 construct: also called cyno FcgRIIIaS; cynoFcγRIIIaS
T2 chain: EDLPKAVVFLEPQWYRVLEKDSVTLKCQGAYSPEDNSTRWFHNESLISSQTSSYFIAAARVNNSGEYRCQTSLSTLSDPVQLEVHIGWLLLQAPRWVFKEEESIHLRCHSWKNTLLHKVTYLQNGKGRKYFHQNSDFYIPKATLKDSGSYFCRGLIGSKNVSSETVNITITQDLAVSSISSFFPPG

[3] = target: T3, human FcγRIIaR extracellular domain with C-terminal His-tag (human, UniProt P12318 34-217); assay: SPR, antibody captured, FcγR analyte
T3 construct: also called human FcgRIIaR; FcγRIIa (type R)
T3 chain: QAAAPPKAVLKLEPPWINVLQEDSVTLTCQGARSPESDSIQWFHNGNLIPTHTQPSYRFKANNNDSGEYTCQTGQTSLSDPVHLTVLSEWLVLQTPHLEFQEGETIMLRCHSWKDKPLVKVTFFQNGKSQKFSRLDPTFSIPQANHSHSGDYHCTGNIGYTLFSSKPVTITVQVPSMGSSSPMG

[4] = target: T4, soluble mouse FcγRII, His-tagged (mouse, UniProt P08101 30-210, limits assumed); assay: SPR, mouse FcγRII captured via His-tag, antigen-antibody complex injected, pH 7.4, 25 C
T4 construct: Captured on the chip through an anti-His antibody
T4 sequence (looked up): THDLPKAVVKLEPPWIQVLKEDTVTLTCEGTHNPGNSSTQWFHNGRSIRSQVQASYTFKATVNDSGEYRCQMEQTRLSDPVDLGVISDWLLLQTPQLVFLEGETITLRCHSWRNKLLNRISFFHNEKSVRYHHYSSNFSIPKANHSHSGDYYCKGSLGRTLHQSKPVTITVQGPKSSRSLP
Experimental: Regarding the produced Fc region variant-containing antibodies, binding assays between soluble mouse FcγRII and antigen-antibody complexes were performed using BIACORE® T200 (GE Healthcare). Soluble mouse FcγRII was produced in the form of a His-tagged molecule by a method known to those skilled in the art. An appropriate amount of an anti-His antibody was fixed onto Sensor chip CM5 (GE Healthcare) by the amine coupling method using a His capture kit (GE Healthcare) to capture mouse FcγRII. Next, an antibody-antigen complex and a running buffer (as a reference solution) were injected, and interaction was allowed to take place with the mouse FcγRII captured onto the sensor chip. 20 mM N-(2-Acetamido)-2-aminoethanesulfonic acid, 150 mM NaCl, 1.2 mM CaCl₂), and 0.05% (w/v) TWEEN® 20 at pH7.4 was used as the running buffer, and the respective buffer was also used to dilute the soluble mouse FcγRII. To regenerate the sensor chip, 10 mM glycine-HCl at pH1.5 was used. All measurements were carried out at 25° C. […] To calculate the parameters, the BIACORE® T100 Evaluation Software (GE Healthcare) was used.

[5] = target: T5, cynomolgus monkey FcγRIIb extracellular domain with C-terminal His-tag (cynomolgus monkey); assay: SPR, KD(SG1)/KD(variant)
T5 construct: also called cyno FcgRIIb; cynoFcγRIIb
T5 chain: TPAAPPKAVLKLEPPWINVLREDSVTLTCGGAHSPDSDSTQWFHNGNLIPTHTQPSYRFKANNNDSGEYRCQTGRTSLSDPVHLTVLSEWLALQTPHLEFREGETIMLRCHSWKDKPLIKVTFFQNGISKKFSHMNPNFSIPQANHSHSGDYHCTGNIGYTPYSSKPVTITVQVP

[6] = target: T2, cynomolgus monkey FcγRIIIaS …; assay: SPR, KD(SG1)/KD(variant)
[7] = target: T6, cynomolgus monkey FcγRIIb extracellular domain with C-terminal His-tag (cynomolgus monkey); assay: SPR (Biacore), KD of SG1 divided by KD of variant
T6 construct: also called cyno FcgRIIb; cynoFcγRIIb
T6 chain: T5 chain

[8] = target: T7, cynomolgus monkey FcγRIIIaS extracellular domain with C-terminal His-tag (cynomolgus monkey, UniProt Q8SPW2 21-206 at identity 1.00)); assay: SPR (Biacore), KD of SG1 divided by KD of variant
T7 construct: also called cyno FcgRIIIaS; cynoFcγRIIIaS
T7 chain: T2 chain

[9] = target: T8, human FcγRIIaR extracellular domain with C-terminal His-tag (human, UniProt P12318 34-217); assay: SPR (Biacore), KD of SG1 divided by KD of variant
T8 construct: also called human FcgRIIaR; FcγRIIa (type R)
T8 chain: T3 chain

[10] = target: T9, human FcγRIIIaV extracellular domain with C-terminal His-tag (human, UniProt P08637 17-208); assay: SPR (Biacore), KD of SG1 divided by KD of variant
T9 construct: also called human FcgRIIIaV
T9 sequence (P08637 17-208 F176V): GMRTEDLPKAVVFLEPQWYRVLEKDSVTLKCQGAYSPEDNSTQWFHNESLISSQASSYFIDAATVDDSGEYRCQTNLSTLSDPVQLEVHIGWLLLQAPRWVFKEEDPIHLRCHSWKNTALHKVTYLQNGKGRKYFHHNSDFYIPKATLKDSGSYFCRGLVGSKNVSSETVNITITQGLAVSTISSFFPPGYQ

[11] = target: T10, cynomolgus monkey FcγRIIa3 extracellular domain with C-terminal His-tag (cynomolgus monkey); assay: SPR (Biacore), KD of SG1 divided by KD of variant
T10 construct: also called cyno FcgRIIa3; cynoFcγRIIa3
T10 chain: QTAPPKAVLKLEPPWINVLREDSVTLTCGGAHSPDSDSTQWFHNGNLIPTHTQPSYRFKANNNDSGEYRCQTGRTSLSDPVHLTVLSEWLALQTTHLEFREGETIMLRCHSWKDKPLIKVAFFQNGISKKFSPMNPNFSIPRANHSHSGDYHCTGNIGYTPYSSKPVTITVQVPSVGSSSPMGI

[12] = target: T11, human FcγRIIb extracellular domain with C-terminal His-tag (human, UniProt P31994 43-217); assay: SPR (Biacore), KD of SG1 divided by KD of variant
T11 construct: also called human FcgRIIb
T11 sequence: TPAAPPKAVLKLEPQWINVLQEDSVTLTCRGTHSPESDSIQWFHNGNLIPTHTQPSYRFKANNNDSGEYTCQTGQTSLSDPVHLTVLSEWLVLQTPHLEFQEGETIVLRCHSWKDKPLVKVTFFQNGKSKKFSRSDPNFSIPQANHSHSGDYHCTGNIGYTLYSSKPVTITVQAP

[13] = target: T12, human FcγRIIaH extracellular domain with C-terminal His-tag (human, UniProt P12318 34-217); assay: SPR (Biacore), antibody captured, FcgR as analyte
T12 construct: also called human FcgRIIaH; FcγRIIa (type H)
T12 sequence: T3 chain with R134H

[14] = target: T8, human FcγRIIaR extracellular domain …; assay: SPR (Biacore), antibody captured, FcgR as analyte
[15] = target: T13, human FcγRIIb extracellular domain with C-terminal His-tag (human, UniProt P31994 43-217); assay: SPR, KD(SG1)/KD(variant)
T13 construct: also called human FcgRIIb
T13 sequence: T11 sequence

[16] = target: T3, human FcγRIIaR extracellular domain …; assay: SPR, KD(SG1)/KD(variant)
[17] = target: T14, human FcγRIIIaV extracellular domain with C-terminal His-tag (human, UniProt P08637 17-208); assay: SPR, KD(SG1)/KD(variant)
T14 construct: also called human FcgRIIIaV
T14 sequence (P08637 17-208 F176V): as the sequence (P08637 17-208 F176V) above

B1: MS1032LO06-SG1 (antibody, human IgG1, kappa)
heavy: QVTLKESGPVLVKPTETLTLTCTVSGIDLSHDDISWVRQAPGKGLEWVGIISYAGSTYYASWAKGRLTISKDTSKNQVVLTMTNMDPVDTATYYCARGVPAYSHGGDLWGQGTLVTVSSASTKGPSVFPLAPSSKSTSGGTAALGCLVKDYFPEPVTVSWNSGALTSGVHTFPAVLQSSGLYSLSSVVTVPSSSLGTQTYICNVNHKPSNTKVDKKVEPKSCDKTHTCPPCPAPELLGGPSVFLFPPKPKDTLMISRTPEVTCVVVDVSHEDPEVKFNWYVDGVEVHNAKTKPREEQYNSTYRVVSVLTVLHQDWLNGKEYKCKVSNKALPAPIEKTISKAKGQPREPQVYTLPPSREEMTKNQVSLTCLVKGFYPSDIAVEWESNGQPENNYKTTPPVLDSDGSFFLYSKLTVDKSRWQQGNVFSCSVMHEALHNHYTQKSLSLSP
light: DIVMTQSPATLSLSPGERATLSCTSSQSVYHANWLSWFQQKPGQPPKLLIYWASTLAYGVPSRFSGSGSGTDFTLTISSLQPEDAATYYCAGGYGGGRYAFGQGTKVEIKRTVAAPSVFIFPPSDEQLKSGTASVVCLLNNFYPREAKVQWKVDNALQSGNSQESVTEQDSKDSTYSLSSTLTLSKADYEKHKVYACEVTHQGLSSPVTKSFNRGEC
notes: also called M103205H795-SG1; copies: 2 + 2
celluar uptake (labelled human latent myostatin taken up as antigen-antibody complex) [1]: 1 relative to SG1 = 1.00
Kd [2]: 260 nM
Kd [3]: 10000 nM
biacore IC binding (relative, SG1 = 1.00) [4]: 1 relative to SG1

B3: M103205H795-MY514 / M103202L889-SK1 (antibody)
heavy: QVTLKESGPVLVKPTETLTLTCTVSGIDLSHDDISWVRQAPGKGLEWVGIISYAGSTYYASWAKGRLTISKDTSKNQVVLTMTNMDPVDTATYYCARGVPAYSHGGDLWGQGTLVTVSSASTKGPSVFPLAPSSKSTSGGTAALGCLVKDYFPEPVTVSWNSGALTSGVHTFPAVLQSSGLYSLSSVVTVPSSSLGTQTYICNVNHKPSNTKVDKKVEPKSCDKTHTCPPCPAPELLTGPVVFLFPPKPKDTLMISRTPEVTCVVVDVSDEDPEVKFNWYVDGVEVHNAKTKPREEQYNLTYRVVSVLTVLHQDWLNGKEYKCKVSNKALPKPIEKTISKAKGQPREPQVYTLPPSREEMTKNQVSLTCLVKGFYPSDIAVEWESNGQPENNYKTTPPVLDSDGSFFLYSKLTVDKSRWQQGNVFSCSVMHEALHNHYTQKSLSLSP
light: B1 light
notes: 'S258L' copied as printed, probably S298L
KD fold (SG1 = 1) [7]: 2.6 fold
KD fold (SG1 = 1) [8]: 0.05 fold
KD fold (SG1 = 1) [9]: 6.9 fold
KD fold (SG1 = 1) [10]: 0.09 fold

B6: M103205H795-MY533/M103202L889-SK1 (antibody, human IgG1, kappa, name in EU numbering)
heavy: B3 heavy with L236W, Q297L, L300S
light: B1 light
notes: copies: 2 + 2
KD fold (SG1 = 1) [5]: 7.7 fold
KD fold (SG1 = 1) [6]: 0.33 fold
KD fold (SG1 = 1) [15]: 4.8 fold

B7: M103205H795-MY532/M103202L889-SK1 (antibody, human IgG1, kappa, name in EU numbering)
heavy: B3 heavy with L236W, L300S
light: B1 light
notes: copies: 2 + 2
KD fold (SG1 = 1) [16]: 5.8 fold
KD fold (SG1 = 1) [17]: 0.48 fold

Results, then the binder that gave them:

KD fold (SG1 = 1) [5]: 5.6 fold
KD fold (SG1 = 1) [6]: 0.24 fold
B2: M103205H795-MY537/M103202L889-SK1 (antibody, human IgG1, kappa, name in EU numbering)
heavy: B3 heavy with A233G, L236W, Q297L, L300S
light: B1 light
notes: copies: 2 + 2

KD fold (SG1 = 1) [11]: 8.1 fold
KD fold (SG1 = 1) [9]: 3.2 fold
KD fold (SG1 = 1) [12]: 3.3 fold
KD fold (SG1 = 1) [10]: 0.23 fold
B4: M103205H795-MY520 / M103202L889-SK1 (antibody, human IgG1, kappa, name in EU numbering)
heavy: B3 heavy with P234D, Q297L, L300S
light: B1 light

KD fold (SG1 = 1) [8]: 0.18 fold
Kd [13]: 350 nM
Kd [14]: 560 nM
B5: M103205H795-MY528 / M103202L889-SK1 (antibody, human IgG1, kappa, name in EU numbering)
heavy: B3 heavy with L236W, V241S, L300S
light: B1 light

KD fold (SG1 = 1) [15]: 3.1 fold
KD fold (SG1 = 1) [17]: 0.28 fold
B8: M103205H795-MY531/M103202L889-SK1 (antibody, human IgG1, kappa, name in EU numbering)
heavy: B3 heavy with L236W, V241S, L300S, K328T
light: B1 light
notes: copies: 2 + 2

KD fold (SG1 = 1) [6]: 0.22 fold
KD fold (SG1 = 1) [16]: 5.8 fold
KD fold (SG1 = 1) [17]: 0.15 fold
B9: M103205H795-MY534/M103202L889-SK1 (antibody, human IgG1, kappa, name in EU numbering)
heavy: B3 heavy with Q297L, L300S
light: B1 light
notes: copies: 2 + 2
